Data from patent US20230313187A1, “MODIFICATIONS OF MAMMALIAN CELLS USING ARTIFICIAL MICRO-RNA TO ALTER THEIR PROPERTIES AND THE COMPOSITIONS OF THEIR PRODUCTS” (DNA TWOPOINTO INC., priority 2020, published 2023).

System: Cricetulus griseus dihydrofolate reductase mRNA
Test: Growth of a clonal cell line with amiRNA targeted toward dihydrofolate reductase with/without HT and MTX
Format: cell-based
Conditions: 50 nM MTX, no HT
Description: A monoclonal line (C426) was derived from the pool transfected with the transposon comprising multi-hairpin amiRNA with nucleotide sequence SEQ ID NO: 210 and selected with 800 μg/ml G418 described in Section 6.5.1. Growth of this clonal cell line in the presence and absence of HT and in the absence of HT and presence of 50 nM MTX was compared with the growth of a control cell line from which C426 was derived.
Cells were transferred to Sigma Advanced Fed Batch media with 5 uM glutamine and to an initial a density of 0.3×10^6 live cells/ml. Parallel cultures were grown (a) in the presence of HT, (b) in the absence of HT and (c) in the absence of HT and the presence of 50 nM MTX. At day 4, all cultures were diluted to adjust viable cell densities to 0.3×10^6 cell/ml. At day 8, all cultures were again diluted to adjust viable cell densities to 0.3×10^6 cell/ml. At day 13, all cultures except for the culture of C426 with 50 nM MTX were again diluted to adjust viable cell densities to 0.3×10^6 cell/ml.
Table 12. Growth of a clonal cell line with amiRNA targeted toward dihydrofolate reductase. […] Viable cell densities were measured at various times after the beginning of the experiment: the cell line is shown in column A, the presence of HT is indicated in column B and the concentration of MTX is shown in column C. […]

B1: SEQ ID NO: 210: three-hairpin amiRNA, guides SEQ ID NOs 82, 83, 84 complementary to Cricetulus griseus dihydrofolate reductase mRNA (nucleic acid)
chain: ATCTGATCTTCTGAAGAAAATATATTTCTTTTTATTCATAGCTCTTAACTAGTGGTGATAGCAATGTCAGCAGTGCCTTAACTCATAGATCTAAAGCCAAGTGAAGCCACAGATGTTGGCTTTAGCTCTATGAGTTCAAGTAAGGTTGACCATACTCTACTCTAGAGTTGTGTTTTAATGTATATTAATGTTACTAATGTGTTTACTAGTGGTGATAGCAATGTCAGCAGTGCCTTAGAGTACAACAGTTGCCCAGGGTGAAGCCACAGATGCCTGGGCAACCGTTGTACTCTCAAGTAAGGTTGACCATACTCTACTCTAGGTTATTTTTAGTATGATTCTGTAAAAATGAATTAATACTAACTAGTGGTGATAGCAATGTCAGCAGTGCCTTTGTTTAGAATTATACAGGGGCGTGAAGCCACAGATGGCCCCTGTATCATTCTAAACACAAGTAAGGTTGACCATACTCTACTCTAGTCAGTTTTATTGATAGTCTTTTCAGTATTATTGATAATCTT
effect of MTX in the growth media on growth: sensitizes cells to the presence of MTX in the growth media
